In publication PMC10584835:

Target: N-terminal eGFP fused human CHFR mutant lacking forkhead-associated domain (human) (UniProt Q96EP1)
Assay: co-IP; anti-GFP agarose beads (GFP-Trap) pull-down from lysates of HMEC transfected with eGFP-CHFR constructs, 48 h after transfection; 150 ug lysate protein, 2 h at 4 C; immunoblot for endogenous VE-cadherin; ratio of VE-cadherin to GFP-CHFR quantified

UniProt Q96EP1, sequence (Q96EP1 whole entry, change not shown, the tested form may be a part): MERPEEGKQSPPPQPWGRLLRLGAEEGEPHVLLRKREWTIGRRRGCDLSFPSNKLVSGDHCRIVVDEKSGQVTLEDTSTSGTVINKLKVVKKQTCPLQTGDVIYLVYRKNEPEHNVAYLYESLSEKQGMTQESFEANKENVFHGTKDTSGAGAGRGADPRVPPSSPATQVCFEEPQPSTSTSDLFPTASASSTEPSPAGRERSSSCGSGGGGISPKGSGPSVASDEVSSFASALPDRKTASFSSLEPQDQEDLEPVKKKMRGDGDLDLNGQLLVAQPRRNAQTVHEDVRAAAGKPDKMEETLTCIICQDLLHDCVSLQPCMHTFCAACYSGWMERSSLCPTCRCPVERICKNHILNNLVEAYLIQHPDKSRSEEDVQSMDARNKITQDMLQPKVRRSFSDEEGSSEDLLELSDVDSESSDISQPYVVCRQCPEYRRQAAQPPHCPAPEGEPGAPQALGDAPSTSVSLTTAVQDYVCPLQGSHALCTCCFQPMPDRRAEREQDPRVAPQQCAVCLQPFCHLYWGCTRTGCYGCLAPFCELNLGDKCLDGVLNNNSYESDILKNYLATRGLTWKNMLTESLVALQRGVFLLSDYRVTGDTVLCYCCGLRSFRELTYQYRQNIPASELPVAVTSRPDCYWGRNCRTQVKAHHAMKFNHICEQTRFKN

fold binding against WT-CHFR: 2 fold
B1: VE-cadherin, endogenous in HMEC (natural protein)
chain: DWIWNQMHIDEEKNTSLPHHVGKIKSSVSRKNAKYLLKGEYVGKVFRVDAETGDVFAIERLDRENISEYHLTAVIVDKDTGENLETPSSFTIKVHDVNDNWPVFTHRLFNASVPESSAVGTSVISVTAVDADDPTVGDHASVMYQILKGKEYFAIDNSGRIITITKSLDREKQARYEIVVEARDAQGLRGDSGTATVLVTLQDINDNFPFFTQTKYTFVVPEDTRVGTSVGSLFVEDPDEPQNRMTKYSILRGDYQDAFTIETNPAHNEGIIKPMKPLDYEYIQQYSFIVEATDPTIDLRYMSPPAGNRAQVIINITDVDEPPIFQQPFYHFQLKENQKKPLIGTVLAMDPDAARHSIGYSIRRTSDKGQFFRVTKKGDIYNEKELDREVYPWYNLTVEAKELDSTGTPTGKESIVQVHIEVLDENDNAPEFAKPYQPKVCENAVHGQLVLQISAIDKDITPRNVKFKFILNTENNFTLTDNHDNTANITVKYGQFDREHTKVHFLPVVISDNGMPSRTGTSTLTVAVCKCNEQGEFTFCEDMAAQVGVSIQAVVAILLCILTITVITLLIFLRRRLRKQARAHGKSVPEIHEQLVTYDEEGGGEMDTTSYDVSVLNSVRRGGAKPPRPALDARPSLYAQVQKPPRHAPGAHGGPGEMAAMIEVKKDEADHDGDGPPYDTLHIYGYEGSESIAESLSSLGTDSSDSDVDYDFLNDWGPRFKMLAELYGSDPREELLY
